Assay results reported in IntAct's records for PubMed 35512704.

B1: Mothers against decapentaplegic homolog 4 (Homo sapiens), Q13485 (parent)
chain: MDNMSITNTPTSNDACLSIVHSLMCHRQGGESETFAKRAIESLVKKLKEKKDELDSLITAITTNGAHPSKCVTIQRTLDGRLQVAGRKGFPHVIYARLWRWPDLHKNELKHVKYCQYAFDLKCDSVCVNPYHYERVVSPGIDLSGLTLQSNAPSSMMVKDEYVHDFEGQPSLSTEGHSIQTIQHPPSNRASTETYSTPALLAPSESNATSTANFPNIPVASTSQPASILGGSHSEGLLQIASGPQPGQQQNGFTGQPATYHHNSTTTWTGSRTAPYTPNLPHHQNGHLQHHPPMPPHPGHYWPVHNELAFQPPISNHPAPEYWCSIAYFEMDVQVGETFKVPSSCPIVTVDGYVDPSGGDRFCLGQLSNVHRTEAIERARLHIGKGVQLECKGEGDVWVRCLSDHAVFVQSYYLDREAGRAPGDAVHKIYPSAYIKVFDLRQCHRQMQQQAATAQAAAAAQAAAVAGNIPGPGSVGGIAPAISLSAAAGIGVDDLRRLCILRMSFVKGWGPDYPRQSIKETPCWIEIHLHRALQLLDEVLHTMPIADPQPLD

Variants of: B1
Settings: with rnf43_human RNF43, Q68DV7

Variant	effect of a mutation on the interaction
D351H	with no effect

Variants of: B1
Settings: with ros1_human ROS1, P08922

Variant	effect of a mutation on the interaction
D351H	with no effect

Variants of: B1
Settings: with rl5_human RPL5, P46777

Variant	effect of a mutation on the interaction
D351H	with no effect

Variants of: B1
Settings: with runx1_human RUNX1, Q01196

Variant	effect of a mutation on the interaction
D351H	with no effect

Variants of: B1
Settings: with ruvb1_human RUVBL1, Q9Y265

Variant	effect of a mutation on the interaction
D351H	with no effect

Variants of: B1
Settings: with sdha_human SDHA

Variant	effect of a mutation on the interaction
D351H	with no effect

Variants of: B1
Settings: with sf3b1_human SF3B1, O75533

Variant	effect of a mutation on the interaction
D351H	with no effect

Variants of: B1
Settings: with skp2_human SKP2, Q13309

Variant	effect of a mutation on the interaction
D351H	with no effect

Variants of: B1
Settings: with smad1_human SMAD1, Q15797

Variant	effect of a mutation on the interaction
D351H	with no effect

Variants of: B1
Settings: with smad2_human SMAD2, Q15796

Variant	effect of a mutation on the interaction
D351H	with no effect

Variants of: B1
Settings: with smad3_human SMAD3, P84022

Variant	effect of a mutation on the interaction
D351H	with no effect

Variants of: B1
Settings: with smca4_human SMARCA4, P51532

Variant	effect of a mutation on the interaction
D351H	with no effect

Variants of: B1
Settings: with snf5_human SMARCB1, Q12824

Variant	effect of a mutation on the interaction
D351H	with no effect

Variants of: B1
Settings: with smo_human SMO

Variant	effect of a mutation on the interaction
D351H	with no effect

Variants of: B1
Settings: with sox10_human SOX10, P56693

Variant	effect of a mutation on the interaction
D351H	with no effect

Variants of: B1
Settings: with sox2_human SOX2, P48431

Variant	effect of a mutation on the interaction
D351H	with no effect

Variants of: B1
Settings: with sox3_human SOX3, P41225

Variant	effect of a mutation on the interaction
D351H	with no effect

Variants of: B1
Settings: with sox4_human SOX4, Q06945

Variant	effect of a mutation on the interaction
D351H	with no effect

Variants of: B1
Settings: with sox9_human SOX9, P48436

Variant	effect of a mutation on the interaction
D351H	with no effect

Variants of: B1
Settings: with spop_human SPOP

Variant	effect of a mutation on the interaction
D351H	with no effect

Variants of: B1
Settings: with src_human SRC

Variant	effect of a mutation on the interaction
D351H	with no effect

Variants of: B1
Settings: with stat3_human STAT3, P40763

Variant	effect of a mutation on the interaction
D351H	with no effect

Variants of: B1
Settings: with stk38_human STK38, Q15208

Variant	effect of a mutation on the interaction
D351H	with no effect

Variants of: B1
Settings: with ksyk_human SYK

Variant	effect of a mutation on the interaction
D351H	with no effect

Variants of: B1
Settings: with eloc_human ELOC

Variant	effect of a mutation on the interaction
D351H	with no effect

Variants of: B1
Settings: with tfe2_human TCF3, P15923

Variant	effect of a mutation on the interaction
D351H	with no effect

Variants of: B1
Settings: with tead1_human TEAD1, P28347

Variant	effect of a mutation on the interaction
D351H	with no effect

Variants of: B1
Settings: with tead2_human TEAD2, Q15562

Variant	effect of a mutation on the interaction
D351H	with no effect

Variants of: B1
Settings: with tead3_human TEAD3, Q99594

Variant	effect of a mutation on the interaction
D351H	with no effect

Variants of: B1
Settings: with tert_human TERT

Variant	effect of a mutation on the interaction
D351H	with no effect

Variants of: B1
Settings: with tgfr2_human TGFBR2, P37173

Variant	effect of a mutation on the interaction
D351H	with no effect

Variants of: B1
Settings: with tnr14_human TNFRSF14, Q92956

Variant	effect of a mutation on the interaction
D351H	with no effect

Variants of: B1
Settings: with tpx2_human TPX2, Q9ULW0

Variant	effect of a mutation on the interaction
D351H	with no effect

Variants of: B1
Settings: with tsc2_human TSC2, P49815

Variant	effect of a mutation on the interaction
D351H	with no effect

Variants of: B1
Settings: with tshr_human TSHR

Variant	effect of a mutation on the interaction
D351H	with no effect

Variants of: B1
Settings: with vegfa_human VEGFA

Variant	effect of a mutation on the interaction
D351H	with no effect

Variants of: B1
Settings: with vhl_human VHL

Variant	effect of a mutation on the interaction
D351H	with no effect

Variants of: B1
Settings: with wt1_human WT1, P19544

Variant	effect of a mutation on the interaction
D351H	with no effect

Variants of: B1
Settings: with wwtr1_human WWTR1, Q9GZV5

Variant	effect of a mutation on the interaction
D351H	with no effect

Variants of: B1
Settings: with xpo1_human XPO1, O14980

Variant	effect of a mutation on the interaction
D351H	with no effect

Variants of: B1
Settings: with 1433b_human YWHAB

Variant	effect of a mutation on the interaction
D351H	with no effect

Variants of: B1
Settings: with 1433e_human YWHAE

Variant	effect of a mutation on the interaction
D351H	with no effect

Variants of: B1
Settings: with 1433z_human YWHAZ

Variant	effect of a mutation on the interaction
D351H	with no effect

Variants of: B1
Settings: with arc1a_human ARPC1A

Variant	effect of a mutation on the interaction
D351H	causing an interaction
